This assay addresses T1, HBsAg (乙肝表面抗原) (Hepatitis B virus).
T1 chain: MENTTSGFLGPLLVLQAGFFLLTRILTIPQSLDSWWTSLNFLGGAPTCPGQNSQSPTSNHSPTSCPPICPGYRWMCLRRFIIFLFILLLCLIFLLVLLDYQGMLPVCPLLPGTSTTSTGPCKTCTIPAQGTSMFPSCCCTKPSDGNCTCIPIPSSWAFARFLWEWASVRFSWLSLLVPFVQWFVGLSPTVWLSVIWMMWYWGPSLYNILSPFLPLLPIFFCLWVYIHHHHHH
Kind of assay: SPR, Biacore 3000, HBsAg immobilised on CM5 chip (2400 RU), antibody as analyte from 100 nM in 2-fold dilutions.

B1: 人源化抗体M1D (antibody, V domains shown)
VH: QVQLQESGPGLVKPSETLSLTCTVSGGSITSNFWSWIRQPPGKGLEWIGYISGSGTYTDYNPSLKSRVTISVDTSKNQFSLKLSSVTAADTAVYYCARSHDYGSNDYAFDFWGQGTTVTVSS
VL: DIQMTQSPSSLSASVGDRVTITCRATQDISSSLNWYQQKPGKAPKLLIYYANRLQSGVPSRFSGSGSGTDFTLTISSLQPEDFATYYCQQYHSLPLTFGGGTKVEIK
notes: also called humanized M1-23
Regarding B1, the Kd is 1.06 nM.

B2: 人源化抗体M3D (antibody, V domains shown)
VH: QVQLQESGPGLVKPSGTLSLTCAVSGVSISSPYDWTWVRQPPGKGLEWIGRIHGNGGSTSYNPSLKSRVTISVDKSKNQFSLKLSSVTAADTAVYYCVRDETWGQGTLVTVSS
VL: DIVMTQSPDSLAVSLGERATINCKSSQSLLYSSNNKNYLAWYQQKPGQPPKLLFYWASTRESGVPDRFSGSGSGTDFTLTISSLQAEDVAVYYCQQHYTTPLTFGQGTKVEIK
notes: also called humanized M3-23
In turn, B2 had a Kd of 1.12 nM.

For the origin of these results see patent CN108690134A (UNIV XIAMEN; YANG SHENG TANG CO LTD, dated 2018).
